In patent US20230406950A1 (LYVGEN BIOPHARMA, published 2023):
Read-outs that look alike come from different tables or passages of the source. Values belong to the binder of their own block, whether it stands above or below them.

Key:
[1] = biological target: T1, human OX40 expressed on CHO cells (human, UniProt P43489 29-277); assay: FACS on CHO cells expressing human OX40 (MFI)
T1 construct: whole, on cells
T1 sequence (looked up): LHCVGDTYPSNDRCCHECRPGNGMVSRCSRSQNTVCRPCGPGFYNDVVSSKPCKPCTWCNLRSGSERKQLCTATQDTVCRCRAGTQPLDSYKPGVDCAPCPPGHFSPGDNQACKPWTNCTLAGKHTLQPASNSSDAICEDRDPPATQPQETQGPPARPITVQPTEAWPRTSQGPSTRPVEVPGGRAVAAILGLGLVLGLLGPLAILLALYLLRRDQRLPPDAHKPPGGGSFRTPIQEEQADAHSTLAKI
Protocol: (§1) Anti-OX40/CD137 bi-specific antibodies were analyzed by FACS for their binding properties to human OX40 and/or human CD137 expressed on CHO cells. Briefly, cultured cells were harvested, counted and cell viability was evaluated using the Trypan Blue exclusion method. Viable cells were then adjusted to 2×10⁶ cells per mL in PBS containing 2% BSA. 100 μL of this cell suspension were further aliquoted per well into a V-bottom 96-well plate. […] After incubation for 2 hours at 4° C., cells were centrifuged (3 min, 1000×g), washed with 250 μL/well BSA-containing FACS Stain Buffer, resuspended and incubated for an additional 1 hour at 4° C. with 100 μL/well fluorochrome-conjugated anti-IgG antibody for detection of the bisepecific antibody. Cells were then washed with 250 μL/well BSA-containing FACS Stain Buffer, resuspended in 100 μL/well FACS Stain Buffer, acquired and analyzed using a FACS machine. Binding of the bispecific antibodies to human OX40 or human CD137 expressing CHO cells were evaluated and the mean fluorescence intensity is plotted in histograms or dot plots.

[2] = biological target: T2, human CD137 expressed on cells (human, UniProt Q07011 24-255); assay: FACS on CHO cells expressing human CD137 (MFI)
T2 construct: whole, on cells; also called 4-1BB; TNFRSF9
T2 sequence (Q07011 24-255): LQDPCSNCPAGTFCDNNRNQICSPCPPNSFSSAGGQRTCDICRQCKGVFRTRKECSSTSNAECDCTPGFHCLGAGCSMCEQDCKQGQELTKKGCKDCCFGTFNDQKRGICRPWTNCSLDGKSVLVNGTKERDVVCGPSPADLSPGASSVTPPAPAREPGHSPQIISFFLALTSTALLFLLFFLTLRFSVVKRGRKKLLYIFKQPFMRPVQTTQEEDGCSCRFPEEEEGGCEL
Protocol: as §1

[3] = biological target: T2, human CD137 expressed on cells; assay: FACS on CHO cells expressing human CD137 (MFI); remark: listed apart in the source
Protocol: as §1, with “Anti-GITR/CD137” for “Anti-OX40/CD137”, “GITR” for “OX40”, “1000× g),” for “1000×g),”

[4] = biological target: T3, human GITR expressed on cells (human, UniProt Q9Y5U5 26-241); assay: flow cytometry (FACS), MFI, CHO cells expressing human GITR
T3 construct: whole, on cells; also called TNFRSF18; CD357
T3 sequence (looked up): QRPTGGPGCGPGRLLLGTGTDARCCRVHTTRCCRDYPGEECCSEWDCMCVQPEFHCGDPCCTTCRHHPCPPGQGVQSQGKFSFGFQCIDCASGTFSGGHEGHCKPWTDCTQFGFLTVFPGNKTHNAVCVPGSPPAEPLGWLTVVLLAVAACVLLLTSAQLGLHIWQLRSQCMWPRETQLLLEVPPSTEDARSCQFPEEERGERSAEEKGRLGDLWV
Protocol: as §1, with “Anti-GITR/CD137” for “Anti-OX40/CD137”, “GITR” for “OX40”, “1000× g),” for “1000×g),”

B3: Ly750 (bispecific antibody, human IgG1, kappa)
heavy: QVQLQESGPGLVKPSETLSLTCTVSGFSLTSYNVHWIRQPPGKGLEWIGVIWSGVRTDYNSVLKSRVTISVDTSKNQFSLKLSSVTAADTAVYYCARGTYDANYHDVMDAWGQGTMVTVSSASTKGPSVFPLAPSSKSTSGGTAALGCLVKDYFPEPVTVSWNSGALTSGVHTFPAVLQSSGLYSLSSVVTVPSSSLGTQTYICNVNHKPSNTKVDKKVEPKSCDKTHTCPPCPAPELLGPSVFLFPPKPKDTLMISRTPEVTCVVVDVSHEDPEVKFNWYVDGVEVHNAKTKPREEQYNSTYRVVSVLTVLHQDWLNGKEYKCKVSNKALPAPIEKTISKAKGQPREPQVYTLPPSREEMTKNQVSLTCLVKGFYPSDIAVEWESNGQPENNYKTTPPVLDSDGSFFLYSKLTVDKSRWQQGNVFSCSVMHEALHNHYTQKSLSLSPGGGGGSGGGGSGGGGSGGGGSDIQMTQSPSSLSASVGDRVTITCRASQDIRSNLNWYQQKPGGAVKLLIYYTSRLHSGVPSRFSGSGSGTDYTLTISSLQPEDFATYFCQQSEKLPRTFGGGTKVEIRGGGGSGGGGSGGGGSGGGGSQVQLVQSGAEVKKPGASVKVSCKASGYTFAGFEMHWVRQAPGQGLEWMGAIDPKTGGTDYNQKFKDRVTMTRDTSISTAYMELSRLRSDDTAVYYCARDLGYFDVWGQGTLVTVSS
light: DTVLTQSPATLSLSPGERATLSCRASKSVRTGMHWYQQKPGQAPRLLVYGASNLESGIPARFSGSGSGTDFTLTISSLEPEDFATYFCHQSWNHFTFGQGTKLEIKRTVAAPSVFIFPPSDEQLKSGTASVVCLLNNFYPREAKVQWKVDNALQSGNSQESVTEQDSKDSTYSLSSTLTLSKADYEKHKVYACEVTHQGLSSPVTKSFNRGEC
notes: Anti-GITR/CD137: TM677 heavy chain fused to Ly1630 scFv (VL-VH)
EC50 (read off the curve) [3]: ~0.2 µg/mL
binding result [4]: binds

B4: Ly751 (bispecific antibody, human IgG1, kappa)
heavy: QVQLQESGPGLVKPSETLSLTCTVSGFSLTSYNVHWIRQPPGKGLEWIGVIWSGVRTDYNSVLKSRVTISVDTSKNQFSLKLSSVTAADTAVYYCARGTYDANYHDVMDAWGQGTMVTVSSASTKGPSVFPLAPSSKSTSGGTAALGCLVKDYFPEPVTVSWNSGALTSGVHTFPAVLQSSGLYSLSSVVTVPSSSLGTQTYICNVNHKPSNTKVDKKVEPKSCDKTHTCPPCPAPELLGPSVFLFPPKPKDTLMISRTPEVTCVVVDVSHEDPEVKFNWYVDGVEVHNAKTKPREEQYNSTYRVVSVLTVLHQDWLNGKEYKCKVSNKALPAPIEKTISKAKGQPREPQVYTLPPSREEMTKNQVSLTCLVKGFYPSDIAVEWESNGQPENNYKTTPPVLDSDGSFFLYSKLTVDKSRWQQGNVFSCSVMHEALHNHYTQKSLSLSPGGGGGSGGGGSGGGGSGGGGSQVQLVQSGAEVKKPGASVKVSCKASGYTFAGFEMHWVRQAPGQGLEWMGAIDPKTGGTDYNQKFKDRVTMTRDTSISTAYMELSRLRSDDTAVYYCARDLGYFDVWGQGTLVTVSSGGGGSGGGGSGGGGSGGGGSDIQMTQSPSSLSASVGDRVTITCRASQDIRSNLNWYQQKPGGAVKLLIYYTSRLHSGVPSRFSGSGSGTDYTLTISSLQPEDFATYFCQQSEKLPRTFGGGTKVEIR
light: B3 light
notes: Anti-GITR/CD137: TM677 heavy chain fused to Ly1630 scFv (VH-VL); TM677 light chain
EC50 (read off the curve) [3]: ~0.2 µg/mL
binding result [4]: binds

Further lines, results first:

binding result [1]: binds
EC50 (read off the curve) [2]: ~0.1 µg/mL
B1: Ly762 (bispecific antibody, human IgG1, kappa)
heavy: QVQLVQSGAEVKKPGASVKVSCKASGYTFAGFEMHWVRQAPGQGLEWMGAIDPKTGGTDYNQKFKDRVTMTRDTSISTAYMELSRLRSDDTAVYYCARDLGYFDVWGQGTLVTVSSASTKGPSVFPLAPSSKSTSGGTAALGCLVKDYFPEPVTVSWNSGALTSGVHTFPAVLQSSGLYSLSSVVTVPSSSLGTQTYICNVNHKPSNTKVDKKVEPKSCDKTHTCPPCPAPELLGPSVFLFPPKPKDTLMISRTPEVTCVVVDVSHEDPEVKFNWYVDGVEVHNAKTKPREEQYNSTYRVVSVLTVLHQDWLNGKEYKCKVSNKALPAPIEKTISKAKGQPREPQVYTLPPSREEMTKNQVSLTCLVKGFYPSDIAVEWESNGQPENNYKTTPPVLDSDGSFFLYSKLTVDKSRWQQGNVFSCSVMHEALHNHYTQKSLSLSPGGGGGSGGGGSGGGGSGGGGSDIQMTQSPSSLSASVGDRVTITCRASQDISNYLNWYQQKPGKAPKLLIYYTSRLRSGVPSRFSGSGSGTDFTLTISSLQPEDFATYYCQQGHTLPPTFGQGTKVEIKGGGGSGGGGSGGGGSGGGGSEVQLVQSGAEVKKPGASVKVSCKASGYTFTDSYMSWVRQAPGQGLEWIGDMYPDNGDSSYNQKFRERVTITRDTSTSTAYLELSSLRSEDTAVYYCVLAPRWYFSVWGQGTLVTVSS
light: DIQMTQSPSSLSASVGDRVTITCRASQDIRSNLNWYQQKPGGAVKLLIYYTSRLHSGVPSRFSGSGSGTDYTLTISSLQPEDFATYFCQQSEKLPRTFGGGTKVEIRRTVAAPSVFIFPPSDEQLKSGTASVVCLLNNFYPREAKVQWKVDNALQSGNSQESVTEQDSKDSTYSLSSTLTLSKADYEKHKVYACEVTHQGLSSPVTKSFNRGEC
notes: Ly1630 light chain

binding result [1]: binds
EC50 (read off the curve) [2]: ~0.1 µg/mL
B2: Ly763 (bispecific antibody, human IgG1, kappa)
heavy: QVQLVQSGAEVKKPGASVKVSCKASGYTFAGFEMHWVRQAPGQGLEWMGAIDPKTGGTDYNQKFKDRVTMTRDTSISTAYMELSRLRSDDTAVYYCARDLGYFDVWGQGTLVTVSSASTKGPSVFPLAPSSKSTSGGTAALGCLVKDYFPEPVTVSWNSGALTSGVHTFPAVLQSSGLYSLSSVVTVPSSSLGTQTYICNVNHKPSNTKVDKKVEPKSCDKTHTCPPCPAPELLGPSVFLFPPKPKDTLMISRTPEVTCVVVDVSHEDPEVKFNWYVDGVEVHNAKTKPREEQYNSTYRVVSVLTVLHQDWLNGKEYKCKVSNKALPAPIEKTISKAKGQPREPQVYTLPPSREEMTKNQVSLTCLVKGFYPSDIAVEWESNGQPENNYKTTPPVLDSDGSFFLYSKLTVDKSRWQQGNVFSCSVMHEALHNHYTQKSLSLSPGGGGGSGGGGSGGGGSGGGGSEVQLVQSGAEVKKPGASVKVSCKASGYTFTDSYMSWVRQAPGQGLEWIGDMYPDNGDSSYNQKFRERVTITRDTSTSTAYLELSSLRSEDTAVYYCVLAPRWYFSVWGQGTLVTVSSGGGGSGGGGSGGGGSGGGGSDIQMTQSPSSLSASVGDRVTITCRASQDISNYLNWYQQKPGKAPKLLIYYTSRLRSGVPSRFSGSGSGTDFTLTISSLQPEDFATYYCQQGHTLPPTFGQGTKVEIK
light: B1 light
notes: Ly1630 light chain

binding result [4]: binds
B5: Ly748 (bispecific antibody, human IgG1, kappa)
heavy: QVQLVQSGAEVKKPGASVKVSCKASGYTFAGFEMHWVRQAPGQGLEWMGAIDPKTGGTDYNQKFKDRVTMTRDTSISTAYMELSRLRSDDTAVYYCARDLGYFDVWGQGTLVTVSSASTKGPSVFPLAPSSKSTSGGTAALGCLVKDYFPEPVTVSWNSGALTSGVHTFPAVLQSSGLYSLSSVVTVPSSSLGTQTYICNVNHKPSNTKVDKKVEPKSCDKTHTCPPCPAPELLGPSVFLFPPKPKDTLMISRTPEVTCVVVDVSHEDPEVKFNWYVDGVEVHNAKTKPREEQYNSTYRVVSVLTVLHQDWLNGKEYKCKVSNKALPAPIEKTISKAKGQPREPQVYTLPPSREEMTKNQVSLTCLVKGFYPSDIAVEWESNGQPENNYKTTPPVLDSDGSFFLYSKLTVDKSRWQQGNVFSCSVMHEALHNHYTQKSLSLSPGK
light: DIQMTQSPSSLSASVGDRVTITCRASQDIRSNLNWYQQKPGGAVKLLIYYTSRLHSGVPSRFSGSGSGTDYTLTISSLQPEDFATYFCQQSEKLPRTFGGGTKVEIRRTVAAPSVFIFPPSDEQLKSGTASVVCLLNNFYPREAKVQWKVDNALQSGNSQESVTEQDSKDSTYSLSSTLTLSKADYEKHKVYACEVTHQGLSSPVTKSFNRGECGGGGSGGGGSGGGGSGGGGSDTVLTQSPATLSLSPGERATLSCRASKSVRTGMHWYQQKPGQAPRLLVYGASNLESGIPARFSGSGSGTDFTLTISSLEPEDFATYFCHQSWNHFTFGQGTKLEIKGGGGSGGGGSGGGGSGGGGSQVQLQESGPGLVKPSETLSLTCTVSGFSLTSYNVHWIRQPPGKGLEWIGVIWSGVRTDYNSVLKSRVTISVDTSKNQFSLKLSSVTAADTAVYYCARGTYDANYHDVMDAWGQGTMVTVSS
notes: Anti-GITR/CD137: Ly1630 heavy chain; Ly1630 light chain fused to TM677 scFv (VL-VH)
